The nature of series [1]: CD temperature-dependent denaturation of triple helix. It counts as physicochemical. Conditions: CD ellipticity at 225 nm, 20° C./hr, Boltzmann sigmoidal fit. How it is done: Circular Dichroism (CD) Spectroscopy. Synthetic collagen peptides were analyzed by CD spectroscopy, as described previously (18) with the following modifications. Briefly, peptides were dissolved in HBS to a concentration of 50 μM. CD spectra were collected on a Jasco J720 spectropolarimeter (Tokyo, Japan) from 190 to 240 nm, with bandwidth of 1 nm and integrated for 1 s at 0.2 nm intervals. Samples were measured at room temperature using cuvettes with 0.02 cm path length. For temperature-dependent denaturation analysis, […] of peptides were added to a thermostatically controlled cuvette with a 0.5 cm path length. Thermal transition profiles were recorded at 225 nm as described above with a temperature slope of 20° C./hr. To calculate the temperature melting points, the thermal transition profiles were fitted with Boltzmann sigmoidal model using the GraphPad Prism™ software (GraphPad Software Inc., San Diego, Calif.).

The target of series [2] is T1, α1I binding to type III collagen (Homo sapiens, UniProt P56199).
T1 construct: recombinant I domains from integrins α1 and α2 (α1I and α2I); made in house
Nature of the series: Competition ELISA, inhibition of I domain binding to type III collagen. Conditions: 100 μM peptide, 0.5 μM α1I, type III procollagen-coated wells. (In general: In an ELISA, binding on a coated surface is turned into a signal by an enzyme label.)

Series [3] has as its target T2, α2I binding to type III collagen (Homo sapiens, UniProt P17301).
T2 construct: recombinant I domains from integrins α1 and α2 (α1I and α2I); made in house
Described as above. Conditions: 100 μM peptide, 5 μM α2I, type III procollagen-coated wells.

Series [4] concerns MRC-5 cells. Nature of the series: Cell attachment assay on coated substrates. It counts as cell-based, human. The conditions noted are these: increasing coating concentrations, 1.5×10^4 cells per well, 45 min, room temperature. As for the experimental part: Reagents and Cell Culture. The human recombinant mature type III collagen used for cell attachment assays was purchased from FibroGen. All cell culture media components were purchased from Invitrogen. The human lung fibroblast cell line MRC-5 was purchased from American Type Culture Collection (ATCC) (Manassas, Va.). The cells were cultured and passaged in Dulbecco's modified Eagle's medium (DMEM) supplemented with 10% fetal bovine serum, 100 unit/ml penicillin and 100 μg/ml streptomycin. The cells were grown to subconfluence and passaged every 2-3 days.
Cell attachment assay. MRC-5 cells were starved overnight in serum deficient DMEM containing penicillin and streptomycin, then detached using 1 mM EDTA and 0.025% trypsin at 37° C. for 2 minutes. The cells were washed with PBS and resuspended in DMEM containing 0.2% BSA supplemented with 2 mM MgCl2. 100 μl of the cell suspension (˜1.5×10^5 cells/ml) were added to the microtiter wells coated with different concentrations of collagen or collagen peptides and blocked with PBS containing 0.5% (w/v) BSA. After incubation at room temperature for 45 min, the wells were washed with PBS. Attached cells were fixed with 3% p-formaldehyde for 10 min at room temperature. Following washing with cold Tris-buffered saline (TBS), pH 7.4, cells were fixed again in 20% methanol for 10 min and stained with 0.5% crystal violet for 5 min. The wells were thoroughly washed with distilled water and air-dried. Sodium citrate (0.1 M) was then added to the wells to dissolve the dye and the absorbance at 590 nm was measured. The maximum cell attachment on type III collagen was set to 100% and, residual attachment on BSA was set to 0%.
Adhesion of MRC-5 cells to peptide#1 (SEQ ID NO: 15) substrates. […] Wells in 96-well plates were coated with increasing concentrations of type III collagen, peptide #1 (SEQ ID NO: 15) or #2 (SEQ ID NO: 16) and 1.5×10^4 MRC-5 cells were added to each well. The plate was incubated for 45 min at room temperature and adhering cells were quantified as described herein.

Series [5] deals with T3, α2I (recombinant I domain of integrin α2) (Homo sapiens, UniProt P17301).
T3 construct: recombinant I domains from integrins α1 and α2 (α1I and α2I); made in house
Kind of series: SPR (BIAcore 3000), I domain binding to immobilized fibrillar collagens. Conditions: equilibrium analysis, 1 mM MgCl2. How it is done:
Surface Plasmon Resonance (SPR) measurements. For the analyses of interactions between recombinant I domains and fibrillar collagens, SPR measurements were carried out at ambient temperature using the BIAcore 3000 system (BIAcore, Uppsala, Sweden) as described previously (21) with following modifications. First, purified recombinant human procollagens I and III (described above), or bovine mature type II collagen (Sigma) were immobilized on the flow cells of a CM5 chip resulting in 200-700 response units of immobilized protein.
SPR sensorgrams from different injections were overlaid using the BIAevaluation software (BIAcore AB). Data from the steady state portion of the sensorgrams were used to determine the binding affinities. Based on the correlation between the SPR response and change in protein mass on the surfaces of flow cells, values for the binding ratio, νbound, and the concentration of free protein, [P]free, were calculated using the equations described previously (21). Scatchard analysis was performed by plotting νbound/[P]free against νbound in which the negative reciprocal of the slope is the dissociation constant, KD. Nonlinear regression was also performed by plotting νbound against [P]free and fitted with the one-binding class or the two-binding class models using the GraphPad Prism™ software (GraphPad Software Inc., San Diego, Calif.). Results from the two models were compared with respect to the value of R^2 and the degree of freedom of the curve fit. The model that gave KD values outside the experimental data range was excluded. Experimental results were reproducible with at least three independent protein preparations.
The interactions between the two I domains and fibrillar collagens (types I, II and III) were examined by SPR. Solutions of 1 μM α1I or α2I were passed over chips containing immobilized collagen I, II, or III in the presence of 1 mM MgCl2.
The BIAcore 3000 system used in the present invention had higher sensitivity of detection which enabled examination of the interactions between α2I and collagens at a sub-micromolar concentration range. […] The binding affinities of α2I to the three types of collagen appeared to be slightly more variable.

The mark [6] stands for this setting: first line per collagen in Table 2 (unit from b77), read-out: KD, high affinity binding class.
Where [7] appears, read: second line per collagen in Table 2 (unit from b77), read-out: KD, low affinity binding class.

Where two headings read alike, the source gives them in different places. Non-standard residues stand in square brackets, D forms with d. Residues, ends and D or L forms follow the SMILES beside them. No end group written: not given here. Hyp = O=C(O)[C@@H]1C[C@@H](O)CN1

T3 sequence (P17301 188-365 limits assumed): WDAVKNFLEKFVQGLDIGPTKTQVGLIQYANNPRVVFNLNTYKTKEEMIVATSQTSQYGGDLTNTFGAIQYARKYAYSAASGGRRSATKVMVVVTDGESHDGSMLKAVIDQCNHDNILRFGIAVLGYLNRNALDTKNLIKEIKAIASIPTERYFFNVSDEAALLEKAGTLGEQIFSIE
T2 sequence (P17301 188-365 limits assumed): as above
T1 sequence (P56199 161-360 limits assumed): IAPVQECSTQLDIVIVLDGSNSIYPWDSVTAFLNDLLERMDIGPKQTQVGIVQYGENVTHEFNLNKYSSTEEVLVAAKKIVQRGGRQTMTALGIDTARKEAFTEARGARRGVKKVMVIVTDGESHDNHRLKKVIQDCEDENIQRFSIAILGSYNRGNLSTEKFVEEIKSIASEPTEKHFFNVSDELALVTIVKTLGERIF

In the case of `N=C(N)NCCC[C@H](NC(=O)[C@H](CCC(=O)O)NC(=O)CNC(=O)[C@@H]1C[C@@H](O)CN1C(=O)[C@H](CCCNC(=N)N)NC(=O)CNC(=O)[C@@H]1C[C@@H](O)CN1C(=O)[C@@H]1CCCN1C(=O)CNC(=O)[C@@H]1C[C@@H](O)CN1C(=O)[C@@H]1CCCN1C(=O)CNC(=O)[C@@H]1C[C@@H](O)CN1C(=O)[C@@H]1CCCN1C(=O)CN)C(=O)NCC(=O)N1CCC[C@H]1C(=O)N1C[C@H](O)C[C@H]1C(=O)NCC(=O)N1CCC[C@H]1C(=O)N1C[C@H](O)C[C@H]1C(=O)NCC(=O)N1CCC[C@H]1C(=O)N1C[C@H](O)C[C@H]1C(N)=O` [GROGER] (H-GP[Hyp]GP[Hyp]GP[Hyp]GR[Hyp]GERGP[Hyp]GP[Hyp]GP[Hyp]-NH2; N-terminus and C-terminus assumed), the “melting temperature (Tm) of triple helix” value in series [1] was determined as 41 °C.

In the case of “(GPO)3GAOGERGROGLO(GPO)3 (GP[Hyp]GP[Hyp]GP[Hyp]GA[Hyp]GERGR[Hyp]GL[Hyp]GP[Hyp]GP[Hyp]GP[Hyp]) [peptide #2]”, the “inhibition of binding of α1I to type III collagen” value in series [2] is 40%. The “inhibition of binding of α2I to type III collagen” value in series [3] is listed as 60%. Also, the “adhesion of MRC-5 cells to coated substrate” value in series [4] is “could not”.

For the molecule “(GPO)11 (GPRGRT) [peptide #3, control peptide, reference compound]”, the “inhibition of binding of α1I to type III collagen” value in series [2] is reported as “did not show any inhibitory activity”. For the same molecule, in series [3], the “inhibition of binding of α2I to type III collagen” value is reported as “did not show any inhibitory activity”.

The term Kd denotes the concentration at which binding is half-saturated. “Collagen I: purified recombinant human procollagen I immobilized for SPR; type I collagen of the cited earlier study”: the Kd in series [5] (first line per collagen in Table 2 (unit from b77), listed as type I collagen, read-out: KD, high affinity binding class) was around 0.3 µM; in series [5] (setting [6]), 0.26 ± 0.08 µM; in series [5] (second line per collagen in Table 2 (unit from b77), listed as type I collagen, read-out: KD, low affinity binding class) it was around 4 µM; in series [5] (setting [7]) it was 3.99 ± 0.82 µM.

On to “Collagen II: bovine mature type II collagen (Sigma)”, for which the Kd in series [5] (setting [6]) is 1.75 µM; in series [5] (second line per collagen in Table 2 (unit from b77), listed as type II collagen, read-out: KD, low affinity binding class), around 16.5 µM; in series [5] (setting [7]), 16.5 ± 3.89 µM.

B1: Collagen III: recombinant human procollagen III in SPR; human recombinant mature type III collagen (FibroGen) in cell attachment assay (protein)
chain: QQEAVEGGCSHLGQSYADRDVWKPEPCQICVCDSGSVLCDDIICDDQELDCPNPEIPFGECCAVCPQPPTAPTRPPNGQGPQGPKGDPGPPGIPGRNGDPGIPGQPGSPGSPGPPGICESCPTGPQNYSPQYDSYDVKSGVAVGGLAGYPGPAGPPGPPGPPGTSGHPGSPGSPGYQGPPGEPGQAGPSGPPGPPGAIGPSGPAGKDGESGRPGRPGERGLPGPPGIKGPAGIPGFPGMKGHRGFDGRNGEKGETGAPGLKGENGLPGENGAPGPMGPRGAPGERGRPGLPGAAGARGNDGARGSDGQPGPPGPPGTAGFPGSPGAKGEVGPAGSPGSNGAPGQRGEPGPQGHAGAQGPPGPPGINGSPGGKGEMGPAGIPGAPGLMGARGPPGPAGANGAPGLRGGAGEPGKNGAKGEPGPRGERGEAGIPGVPGAKGEDGKDGSPGEPGANGLPGAAGERGAPGFRGPAGPNGIPGEKGPAGERGAPGPAGPRGAAGEPGRDGVPGGPGMRGMPGSPGGPGSDGKPGPPGSQGESGRPGPPGPSGPRGQPGVMGFPGPKGNDGAPGKNGERGGPGGPGPQGPPGKNGETGPQGPPGPTGPGGDKGDTGPPGPQGLQGLPGTGGPPGENGKPGEPGPKGDAGAPGAPGGKGDAGAPGERGPPGLAGAPGLRGGAGPPGPEGGKGAAGPPGPPGAAGTPGLQGMPGERGGLGSPGPKGDKGEPGGPGADGVPGKDGPRGPTGPIGPPGPAGQPGDKGEGGAPGLPGIAGPRGSPGERGETGPPGPAGFPGAPGQNGEPGGKGERGAPGEKGEGGPPGVAGPPGGSGPAGPPGPQGVKGERGSPGGPGAAGFPGARGLPGPPGSNGNPGPPGPSGSPGKDGPPGPAGNTGAPGSPGVSGPKGDAGQPGEKGSPGAQGPPGAPGPLGIAGITGARGLAGPPGMPGPRGSPGPQGVKGESGKPGANGLSGERGPPGPQGLPGLAGTAGEPGRDGNPGSDGLPGRDGSPGGKGDRGENGSPGAPGAPGHPGPPGPVGPAGKSGDRGESGPAGPAGAPGPAGSRGAPGPQGPRGDKGETGERGAAGIKGHRGFPGNPGAPGSPGPAGQQGAIGSPGPAGPRGPVGPSGPPGKDGTSGHPGPIGPPGPRGNRGERGSEGSPGHPGQPGPPGPPGAPGPCCGGVGAAAIAGIGGEKAGGFAPYYGDEPMDFKINTDEIMTSLKSVNGQIESLISPDGSRKNPARNCRDLKFCHPELKSGEYWVDPNQGCKLDAIKVFCNMETGETCISANPLNVPRKHWWTDSSAEKKHVWFGESMDGGFQFSYGNPELPEDVLDVHLAFLRLLSSRASQNITYHCKNSIAYMDQASGNVKKALKLMGSNEGEFKAEGNSKFTYTVLEDGCTKHTGEWSKTVFEYRTRKAVRLPIVDIAPYDIGGPDQEFGVDVGPVCFL
modifications: non-natural residues
notes: recombinant human procollagen III in SPR; human recombinant mature type III collagen (FibroGen) in cell attachment assay
In the case of B1, the Kd was around 0.3 µM in series [5] (first line per collagen in Table 2 (unit from b77), listed as type III collagen, read-out: KD, high affinity binding class); 0.33 ± 0.03 µM in series [5] (setting [6]); around 14.5 µM in series [5] (second line per collagen in Table 2 (unit from b77), listed as type III collagen, read-out: KD, low affinity binding class); 14.5 ± 3.41 µM in series [5] (setting [7]). Moreover, in series [4], the “adhesion of MRC-5 cells to coated substrate” value is “could support adhesion of MRC-5 cells in a dose-dependent manner”.

These data come from patent publication US10358464B2, “Specific binding sites in collagen for integrins and use thereof” (The Texas A&M University System, priority 2005, dated 2019).
